Results on 2 molecules are retold here after patent US20260139017A1, “COMPOSITIONS AND METHODS USING REELIN IN ALZHEIMER'S DISEASE” (The General Hospital Corporation, priority 2022, published 2026).

Entries after “also recorded” stand apart in the source; their conditions may differ.

One data set relates to pDAB1 (Tyr232). Kind of data set: HRECs treated 5 minutes with recombinant mini-RELN, pDAB1 western blot. It counts as cell-based, human. Conditions: for pDAB1 levels: 5 minutes, 4 ug/mL recombinant protein. Here is the method:
For in vitro screening of constructs using recombinant mini-RELN on HRECs, the cells were cultured in EBM-2 media enriched with EGM-2 Single Quots (Lonza) at 37° C. and 5% CO2 and experimentally tested at passage 7. 24 h prior experiment, cells were plated on a 6-well plate at 500,000 cells/mL. Two hours before the experiment, the cells were washed with PBS to remove residual growth media and then incubated with a starving media including EBM-2, 1% GlutaMax+0.2% Normicin. Treatments was conducted using recombinant mini RELN constructs obtained from Innovagen and Recombinant Mouse Reelin Protein from R&D systems (3820-MR-025/CF). Each treatment was incubated for 5 minutes at 4 ug/mL concentration and cells were subsequently harvested in lysis buffer was applied constituted of RIPA (Cell signaling), proteases inhibitors (cOmplete™, Mini, EDTA-free Protease Inhibitor Cocktail, Roche), phosphatases inhibitors (PhosSTOP, Roche), 1 μL of proteasome inhibitor MG-132 10 mM, 1% Triton X 100. The lysates were scraped and centrifugated at 15000 rpm for 10 minutes at 4° C. Total protein levels were quantified via BCA assay. For Western Blotting, 3.5 ug protein homogenates were prepared under reducing and denaturing conditions using Laemmli buffer enriched with 10 mM DTT and 5 min boiling. Samples were electrophoretically separated in a 4-20% Gel at 90V and protein transferred to a PVDF membrane using iBlot™ 2 Dry Blotting System. The membrane was blocked using Intercept® (TBS) Blocking Buffer for 2 hours. We detected pDAB1 (Tyr232; 1:1000, rabbit, #3325 Cell signaling), and total protein staining (Licor). Antibodies were diluted using Intercept® (TBS) Blocking Buffer and incubated overnight at 4C under gentle shaking. Prior secondary antibody incubation, membranes were washed 2 times using TBS-T for 10 minutes. As secondary antibodies we used IR Dye 800n CW Goat-anti-Rabbit (925-32211, Licor) diluted 1:10000 in blocking buffer for 1 h at room temperature under gentle shaking. Membranes were washed three times with TBST-T prior IR detection using Odyssey imager. To quantify the results, each band was quantified using ImageJ and data expressed as pDABL:total protein ratio normalized to the control.
On the technique in general: In western blotting, separated proteins are transferred to a membrane and probed.

In data set [1] the test system is pDAB1. Kind of data set: Trans-nasal (MIND) delivery of mini-RELN in mice, brain pDAB1 western blot. The data set is classed as in vivo. From the text:
(§1) We used a MIND procure (trans nasal delivery using Minimally Invasive Nasal Depot (MIND), Padmakumar et al., J Control Release. 2021 Mar. 10; 331: 176-186) or intraperitoneal injection to administer miniRELN constructs into mice. MIND leverages the olfactory nerve to bypass the blood brain barrier. […] Using the MIND methodology provides one method of reaching the entorhinal cortex with minimal systemic exposure. […] (Jackson Laboratory) were housed under regular light/night cycle. All procedures were conducted under approved IACUC animal protocols. Prior to incision, the nasal region was shaved and cleaned using betadine and 70% alcohol and mouse subcutaneously injected with buprenorphine HCl and meloxicam (5 mg/kg). The nasal cavity was then opened using a scalped and nasal mucosa exposed using a microdrill. Once the mucosa was exposed, gel dispersion of either PBS or mini-RELN constructs (Innovagen) in 20% Pluronic (Sigma Aldrich) was subcutaneously delivered in the surgically-generated pocket. Mice were injected with meloxicam for 3 days prior euthanasia at day 4 to collect the brain tissue used for post-mortem analysis.
Western blotting was performed as follows. 20 ug protein homogenates were prepared under reducing and denaturing conditions using Laemmli buffer enriched with 10 mM DTT and 5 min boiling. Samples were electrophoretically separated in a 4-20% Gel at 90V and protein transferred to a PVDF membrane using iBlot™ 2 Dry Blotting System. The membrane was blocked using Intercept® (TBS) Blocking Buffer for 2 hours. We detected pDAB1 (Tyr232; 1:1000, rabbit, #3325 Cell signaling), and Beta actin (1:5000, mouse, #66009-1-Ig, Proteintech). Antibodies were diluted using Intercept® (TBS) Blocking Buffer and incubated overnight at 4C under gentle shaking. Prior secondary antibody incubation, membranes were washes 2 times using TBS-T for 10 minutes. As secondary antibodies we used IR Dye 800n CW Goat-anti-Rabbit (925-32211, Licor) and IR Dye 680 CW Goat-anti-Mouse (925-68070, Licor) both diluted 1:10000 in blocking buffer for 1 h at room temperature under gentle shaking. Membranes were washed three times with TBS-T prior IR detection using Odyssey imager. To quantify the results, each band was quantified using ImageJ and data expressed as pDAB1:βActin ratio normalized to the control.

Data set [2] relates to pDAB1. Kind of data set: Immunofluorescence of cleared brain sections (Fc tag, pDAB1) after MIND delivery. It counts as in vivo, mice. Here is the method:
24 or 72 hours after Mini Reelin (225S) or vehicle administration, mice were intracardially perfused with 4% PFA in PBS and brains were harvested and incubated in 4% PFA at 4° C. for 24 hours. Sagittal sections were obtained at 1 mm thickness using a stainless-steel brain matrix. The entorhinal-hippocampal section of each brain was chosen for Clarity using Binaree® Tissue Clearing™ Kit (HRTC-012) following the kit guidelines. Sections were incubated with IgG-Fc tag and pDAB1 primary antibodies for 72 h followed by secondary antibody: Alexa 488 and Alexa 647, and DAPI for 1 h. Subsequently, sections were imaged using confocal SP8 microscope for quantification. […] This is proof of effective drug delivery, target engagement, and targeted RELN signaling activation, in the hippocampal formation.

Data set [3] is described as follows: Anti human IgG-Fc ELISA of hippocampus after trans-nasal mini-RELN. It counts as in vivo, mice. Conditions: 72 h post injection, vs PBS vehicle.
Description: as §1

Another data set relates to total DAB1. Kind of data set: Overexpression of mini-RELN constructs in HRECs, total DAB1 western blot. It counts as cell-based, human. Conditions: 24 h overexpression in HRECs. Here is the method:
For in vitro overexpression, the HRECs were cultured in EBM-2 media enriched with EGM-2 Single Quots (Lonza) at 37° C. and 5% CO2 and experimentally tested at passage 7. 24 h prior experiment, cells were plated on a 6-well plate at 500,000 cells/mL. The cell transfection of plasmids was done with Lipofectamine 2000 (5 μL, Life technologies) according to the manufacturer. In detail, one day prior to transfection, cells were seeded to be 70% confluent at moment of transfection. The day of transfection lipofectamine was diluted and incubated for 10 minutes at room temperature, to allow the formation of the lipophilic complex. Subsequently, each plasmid (1 μg, Invivogen) was added to the lipid complex of Lipofectamine and incubated for 10 minutes. We used OPTIMEM media (Gibco) to block the transfection after 5 hours, to allow cells to recover and facilitate replication. Prior 5 h and 24 h post-transfection, cells were imaged using 10× magnification light microscope (Olympus CKX53).
24 h post-transfection, cells were harvested for western blotting analysis. Total protein levels were quantified via BCA assay. […] We detected β-actin (1:5000, mouse, #66009-1-Ig, Proteintech), and total DAB1(1:100, SC-red tube; sc-271136 Dab1 (G-5), Santa Cruz). […] To quantify the results, each band was quantified using ImageJ and data expressed as DAB1:β-actin ratio normalized to the control. […]

Setting [4] is: WT male mice, 72 h post-trans-nasal delivery.

B1: FcIgG-RAP-CTRH3447R (protein)
chain: MYRMQLLSCIALSLALVTNSAPLERKSSVECPPCPAPPVAGPSVFLFPPKPKDTLMISRTPEVTCVVVDVSHEDPEVQFNWYVDGVEVHNAKTKPREEQFNSTFRVVSVLTVVHQDWLNGKEYKCKVSNKGLPAPIEKTISKTKGQPREPQVYTLPPSREEMTKNQVSLTCLVKGFYPSDIAVEWESNGQPENNYKTTPPMLDSDGSFFLYSKLTVDKSRWQQGNVFSCSVMHEALHNHYTQKSLSLSPGARTGGGGSGGGGSMAPRRVRSFLRGLPALLLLLLFLGPWPAASHGGKYSREKNQPKPSPKRESGEEFRMEKLNQLWEKAQRLHLPPVRLAELHADLKIQERDELAWKKLKLDGLDEDGEKEARLIRNLNVILAKYGLDGKKDARQVTSNSLSGTQEDGLDDPRLEKLWHKAKTSGKFSGEELDKLWREFLHHKEKVHEYNVLLETLSRTEEIHENVISPSDLSDIKGSVLHSRHTELKEKLRSINQGLDRLRRVSHQGYSTEAEFEEPRVIDLWDLAQSANLTDKELEAFREELKHFEAKIEKHNHYQKQLEIAHEKLRHAESVGDGERVSRSREKHALLEGRTKELGYTVKKHLQDLSGRISRARHNELTGGSGGSTRKQNYMMNFSRQHGLRRFYNRRRRSLRRYP
In the case of B1, the pDAB1 levels entry in the data set with pDAB1 (Tyr232) is given as “increased pDAB1 levels”. In addition, the “pDAB1 levels in the entorhinal cortex” value with pDAB1 [1] (Tau P301S mice, 72 h post-trans nasal delivery, vs PBS) is recorded as “increased”. For the same molecule, in the data set with pDAB1 [2] (entorhinal-hippocampal section, 24 or 72 hours after MIND), the “presence of peptide in the brain (Fc immunofluorescence)” value is “presence of the miniRELN peptide in the brain”. Also, in the data set with pDAB1 [2] (wildtype animals, trans nasal, 24 hours, vs pluronic vehicle), the “RELN signaling measured via pDab1 (immunofluorescence)” value is “increased levels of RELN signaling”. Moreover, the “anti human IgG-Fc ELISA optical density in the hippocampus” value in data set [3] is given as “trended to be increased”.

B2: 6xHISCR-50-R5-6-CtermH3447R (protein)
chain: MYRMQLLSCIALSLALVTNSGGHHHHHHGGEQCGAIMHGNAVTFCEPYGPRELITTGLNTTTASVLQFSIGSGSCRFSYSDPSIIVLYAKNNSADWIQLEKIRAPSNVSTIIHILYLPEDAKGENVQFQWKQENLRVGEVYEACWALGSRGGQTNATRFRLWQPYNNGKKEEIWIVDDFIIDGNNVNNPVMLLDTFDFGPREDNWFFYPGGNIGLYCPYSSKGAPEEDSAMVFVSNEVGEHSITTRDLNVNENTIIQFEINVGCSTDSSSADPVRLEFSRDFGATWHLLLPLCYHSSSHVSSLCSTEHHPSSTYYAGTMQGWRREVVHFGKLHLCGSVRFRWYQGFYPAGSQPVTWAIDNVYIGPQCEEMCNGQGSCINGTKCICDPGYSGPTCKISTKNPDFLKDDFEGQLESDRFLLMSGGKPSRKCGILSSGNNLFFNEDGLRMLMTRDLDLSHARFVQFFMRLGCGKGVPDPRSQPVLLQYSLNGGLSWSLLQEFLFSNSSNVGRYIALEIPLKARSGSTRLRWWQPSENGHFYSPWVIDQILIGGNISGNMVLEDDFTTLDSRKWLLHPGGTKMPVCGSTGDALVFIEKASTRYVVSTDVAVNEDSFLQIDFAVSCSVTDSCYAIELEYSVDLGLSWHPLVRDCLPTNVECSRYHLQRILVSDTFNKWTRITLPLPPYTRSQATRFRWHQPAPFDKQQTWAIDNVYIGDGCIDMCSGHGRCIQGNCVCDEQWGGLYCDDPETSLPTQLKDNFNRAPSSQNWLTVNGGKLSTVCGAVASGMALHFSGGCSRLLVTVDLNLTNAEFIQFYFMYGCLITPNNRNQGVLLEYSVNGGITWNLLMEIFYDQYSKPGFVNILLPPDAKEIATRFRWWQPRHDGLDQNDWAIDNVLISGSASTRKQNYMMNFSRQHGLRRFYNRRRRSLRRYP
Take B2: the “efficacy at RELN signaling (pDAB1) relative to comparators” value in the data set with pDAB1 (Tyr232) (5 minutes treatment) was “more effective than commercially available positive control; also recorded: more effective at triggering signaling compared to full-length RELN WT and full-length RELN COLBOS”. In addition, in the data set with pDAB1 (Tyr232), the pDAB1 levels result is “increased pDAB1 levels”. Moreover, in the data set with pDAB1 [1] (setting [4]), the “pDAB1 levels in the hippocampus” value is listed as “increased” and the “pDAB1 levels in the midbrain” value is “increased”. The “total DAB1 levels normalized to β-actin and lipofectamine control” value in the data set on total DAB1 is “the most active”.
